# Results: the supplement of paper PMC9112550, “Optimization of the antimicrobial peptide Bac7 by deep mutational scanning” (BMC Biology, 2022)
# Tested on: Escherichia coli TOP10
# Assay: shrunken log2 fold change of peptide-encoding DNA abundance (4.5 h post-induction vs induction); higher = less antimicrobial activity (less host growth inhibition)
# Conditions: time post-induction: 4.5 h; library: site-saturation at positions 5, 18, 19, 20
# 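Note: peptides expressed intracellularly from a pBAD plasmid library in pooled LB shake-flask culture, induced with 0.3% L-arabinose, DNA abundance read by NGS, three biological replicates, DESeq2 with apeglm shrinkage.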
row,Sequence,shrunken log2 fold change
1,RRIRSRPPRLPRPRPRPSLCPRP,-0.0295
2,RRIRTRPPRLPRPRPRPKAPPRP,0.317
3,RRIRQRPPRLPRPRPRPNYSPRP,-0.397
4,RRIRFRPPRLPRPRPRPPYNPRP,-0.323
5,RRIRMRPPRLPRPRPRPTKCPRP,0.331
6,RRIRSRPPRLPRPRPRPEPEPRP,0.102
7,RRIRHRPPRLPRPRPRPDISPRP,-0.278
8,RRIRDRPPRLPRPRPRPNVSPRP,-0.00783
9,RRIRQRPPRLPRPRPRPDCGPRP,2.88
10,RRIRSRPPRLPRPRPRPGVCPRP,0.562
11,RRIRLRPPRLPRPRPRPIGNPRP,0.0592
12,RRIRYRPPRLPRPRPRPQVPPRP,-0.124
13,RRIRPRPPRLPRPRPRPHTFPRP,-0.667
14,RRIRDRPPRLPRPRPRPRDAPRP,0.59
15,RRIRKRPPRLPRPRPRPYSFPRP,-0.119
16,RRIRRRPPRLPRPRPRPMCKPRP,0.141
17,RRIRERPPRLPRPRPRPEQHPRP,-0.0123
18,RRIRCRPPRLPRPRPRPKIFPRP,-0.0936
19,RRIRYRPPRLPRPRPRPFHDPRP,-0.195
20,RRIRGRPPRLPRPRPRPYEHPRP,0.256
21,RRIRERPPRLPRPRPRPGFSPRP,-0.196
22,RRIRARPPRLPRPRPRPLLVPRP,0.284
23,RRIRHRPPRLPRPRPRPPSWPRP,0.393
24,RRIRLRPPRLPRPRPRPKAKPRP,0.0705
25,RRIRDRPPRLPRPRPRPWPLPRP,0.00172

row,Sequence,shrunken log2 fold change
1,RRIRFRPPRLPRPRPRPVVKPRP,-0.461
2,RRIRARPPRLPRPRPRPMDYPRP,-0.407
3,RRIRCRPPRLPRPRPRPCSDPRP,-0.0728
4,RRIRNRPPRLPRPRPRPMIKPRP,-0.456
5,RRIRRRPPRLPRPRPRPIGQPRP,0.182
6,RRIRPRPPRLPRPRPRPSMPPRP,-0.208
7,RRIRVRPPRLPRPRPRPWNSPRP,-0.106
8,RRIRIRPPRLPRPRPRPCRKPRP,-0.0747
9,RRIRTRPPRLPRPRPRPYHNPRP,-0.941
10,RRIRRRPPRLPRPRPRPYFTPRP,-0.432
11,RRIRMRPPRLPRPRPRPKPDPRP,1.13
12,RRIRERPPRLPRPRPRPVQNPRP,-0.0413
13,RRIRNRPPRLPRPRPRPASEPRP,-0.0216
14,RRIRNRPPRLPRPRPRPCAQPRP,0.127
15,RRIRWRPPRLPRPRPRPRDMPRP,-0.255
16,RRIRQRPPRLPRPRPRPCQFPRP,0.0287
17,RRIRGRPPRLPRPRPRPMLTPRP,1.04
18,RRIRFRPPRLPRPRPRPMTPPRP,-0.202
19,RRIRCRPPRLPRPRPRPIYDPRP,-0.867
20,RRIRYRPPRLPRPRPRPMPTPRP,0.0288
21,RRIRERPPRLPRPRPRPLGKPRP,0.189
22,RRIRWRPPRLPRPRPRPHVLPRP,-0.096
23,RRIRKRPPRLPRPRPRPQQSPRP,-0.0568
24,RRIRYRPPRLPRPRPRPASMPRP,0.0167
25,RRIRLRPPRLPRPRPRPHRHPRP,-0.361

row,Sequence,shrunken log2 fold change
1,RRIRLRPPRLPRPRPRPHVKPRP,-0.333
2,RRIRLRPPRLPRPRPRPMGKPRP,-0.353
3,RRIRPRPPRLPRPRPRPVTVPRP,-0.163
4,RRIRERPPRLPRPRPRPDYKPRP,-0.31
5,RRIRPRPPRLPRPRPRPGVRPRP,0.116
6,RRIRSRPPRLPRPRPRPKSWPRP,0.392
7,RRIRQRPPRLPRPRPRPCPWPRP,0.0978
8,RRIRFRPPRLPRPRPRPFQIPRP,-0.0567
9,RRIRYRPPRLPRPRPRPFTRPRP,-0.0174
10,RRIRNRPPRLPRPRPRPFACPRP,0.0153
11,RRIRFRPPRLPRPRPRPMNPPRP,-0.0531
12,RRIRFRPPRLPRPRPRPDQKPRP,-0.0128
13,RRIRTRPPRLPRPRPRPSINPRP,-0.63
14,RRIRCRPPRLPRPRPRPNHLPRP,-0.437
15,RRIRVRPPRLPRPRPRPGQTPRP,-0.00176
16,RRIRYRPPRLPRPRPRPIIAPRP,-1.18
17,RRIRPRPPRLPRPRPRPTMIPRP,-0.239
18,RRIRHRPPRLPRPRPRPTCRPRP,-0.232
19,RRIRGRPPRLPRPRPRPDSAPRP,0.525
20,RRIRERPPRLPRPRPRPNNYPRP,-0.821
21,RRIRQRPPRLPRPRPRPQSDPRP,-0.00542
22,RRIRKRPPRLPRPRPRPSITPRP,0.846
23,RRIRCRPPRLPRPRPRPVTFPRP,-0.294
24,RRIRERPPRLPRPRPRPILYPRP,-0.615
25,RRIRRRPPRLPRPRPRPDHNPRP,0.121

row,Sequence,shrunken log2 fold change
1,RRIRSRPPRLPRPRPRPCVHPRP,-0.471
2,RRIRIRPPRLPRPRPRPDDGPRP,-0.184
3,RRIRWRPPRLPRPRPRPYCYPRP,-0.562
4,RRIRMRPPRLPRPRPRPEPCPRP,1.13
5,RRIRMRPPRLPRPRPRPGSEPRP,0.952
6,RRIRNRPPRLPRPRPRPYCWPRP,-0.425
7,RRIRHRPPRLPRPRPRPLPRPRP,0.176
8,RRIRDRPPRLPRPRPRPAGLPRP,0.0252
9,RRIRCRPPRLPRPRPRPQWCPRP,-0.158
10,RRIRNRPPRLPRPRPRPCRLPRP,-0.0199
11,RRIRNRPPRLPRPRPRPHWNPRP,-1.01
12,RRIRERPPRLPRPRPRPSPIPRP,-0.122
13,RRIRERPPRLPRPRPRPSVFPRP,-0.0831
14,RRIRYRPPRLPRPRPRPCWGPRP,-0.204
15,RRIRPRPPRLPRPRPRPACNPRP,0.00285
16,RRIRARPPRLPRPRPRPMWNPRP,-0.342
17,RRIRLRPPRLPRPRPRPTLCPRP,0.163
18,RRIRSRPPRLPRPRPRPFFGPRP,0.148
19,RRIRMRPPRLPRPRPRPYKIPRP,-0.544
20,RRIRWRPPRLPRPRPRPGMLPRP,-0.11
21,RRIRERPPRLPRPRPRPKRSPRP,-0.0414
22,RRIRIRPPRLPRPRPRPCSIPRP,-0.012
23,RRIRQRPPRLPRPRPRPQCWPRP,-0.0996
24,RRIRIRPPRLPRPRPRPWCSPRP,-0.412
25,RRIRWRPPRLPRPRPRPHYNPRP,-0.772

row,Sequence,shrunken log2 fold change
1,RRIRFRPPRLPRPRPRPLFIPRP,-0.652
2,RRIRERPPRLPRPRPRPSTHPRP,-0.663
3,RRIRCRPPRLPRPRPRPCKQPRP,-0.0357
4,RRIRCRPPRLPRPRPRPAYQPRP,-0.0687
5,RRIRYRPPRLPRPRPRPKEKPRP,-0.0829
6,RRIRHRPPRLPRPRPRPLVGPRP,0.00867
7,RRIRHRPPRLPRPRPRPIREPRP,-0.00145
8,RRIRPRPPRLPRPRPRPGRVPRP,0.318
9,RRIRHRPPRLPRPRPRPETCPRP,-0.0251
10,RRIRYRPPRLPRPRPRPKVDPRP,-0.079
11,RRIRCRPPRLPRPRPRPYQLPRP,-0.119
12,RRIRTRPPRLPRPRPRPVWHPRP,0.095
13,RRIRGRPPRLPRPRPRPCDQPRP,-0.0239
14,RRIRCRPPRLPRPRPRPEMTPRP,0.517
15,RRIRPRPPRLPRPRPRPKQDPRP,0.0659
16,RRIRARPPRLPRPRPRPDFPPRP,0.102
17,RRIRPRPPRLPRPRPRPREQPRP,0.00917
18,RRIRLRPPRLPRPRPRPSFNPRP,-0.529
19,RRIRTRPPRLPRPRPRPVGDPRP,0.21
20,RRIRGRPPRLPRPRPRPQIRPRP,0.808
21,RRIRERPPRLPRPRPRPQMYPRP,-0.337
22,RRIRWRPPRLPRPRPRPLKNPRP,0.245
23,RRIRVRPPRLPRPRPRPYSEPRP,-0.217
24,RRIRSRPPRLPRPRPRPPYFPRP,-0.0285
25,RRIRFRPPRLPRPRPRPAWRPRP,0.765

row,Sequence,shrunken log2 fold change
1,RRIRPRPPRLPRPRPRPIEWPRP,0.015
2,RRIRSRPPRLPRPRPRPPPKPRP,0.708
3,RRIRVRPPRLPRPRPRPLWEPRP,0.203
4,RRIRWRPPRLPRPRPRPLETPRP,-0.0608
5,RRIRGRPPRLPRPRPRPEQKPRP,0.105
6,RRIRSRPPRLPRPRPRPFVMPRP,-0.0833
7,RRIRPRPPRLPRPRPRPMTKPRP,0.0497
8,RRIRRRPPRLPRPRPRPSFYPRP,-0.36
9,RRIRKRPPRLPRPRPRPWQHPRP,-0.0281
10,RRIRFRPPRLPRPRPRPMDWPRP,0.314
11,RRIRGRPPRLPRPRPRPGIDPRP,0.607
12,RRIRIRPPRLPRPRPRPREAPRP,0.0165
13,RRIRERPPRLPRPRPRPYRMPRP,-0.113
14,RRIRDRPPRLPRPRPRPMHQPRP,0.126
15,RRIRMRPPRLPRPRPRPQFLPRP,-0.106
16,RRIRIRPPRLPRPRPRPMRFPRP,-0.0444
17,RRIRIRPPRLPRPRPRPLGVPRP,-0.0767
18,RRIRHRPPRLPRPRPRPACCPRP,-0.0888
19,RRIRARPPRLPRPRPRPNQQPRP,0.284
20,RRIRIRPPRLPRPRPRPEMHPRP,-0.328
21,RRIRCRPPRLPRPRPRPDVCPRP,-0.0548
22,RRIRHRPPRLPRPRPRPAMAPRP,0.126
23,RRIRLRPPRLPRPRPRPCGTPRP,-0.0819
24,RRIRDRPPRLPRPRPRPLSDPRP,0.125
25,RRIRVRPPRLPRPRPRPEVCPRP,0.0183
